Assay [1] deals with human ROR1 (Receptor Tyrosine Kinase-Like Orphan Receptor 1) on the cell surface (human) (UniProt Q01973). Put plainly: flow cytometry, LS174T cells expressing human ROR1 (low density). Background: In flow cytometry, cells or beads pass a laser one at a time.
Assay [2] has the same target. The assay is described as above. The source holds these as a separate data set.
For assay [3] the target is unchanged. Put plainly: flow cytometry, B16-F10 cells expressing human ROR1 (high density).
The target is the same in assay [4]. The description is as above. The source holds these as a separate data set.
Assay [5] has the same target. Described as above. The source holds these as a separate data set.
For assay [6] the target is unchanged. The assay is described as above. The source holds these as a separate data set.
The target is the same in assay [7]. The description is as above. This is another data set of the same source.
Assay [8] has the same target. The description is as above. The source holds these as a separate data set.

human ROR1 (Receptor Tyrosine Kinase-Like Orphan Receptor 1) on the cell surface (human), sequence (Q01973 30-937): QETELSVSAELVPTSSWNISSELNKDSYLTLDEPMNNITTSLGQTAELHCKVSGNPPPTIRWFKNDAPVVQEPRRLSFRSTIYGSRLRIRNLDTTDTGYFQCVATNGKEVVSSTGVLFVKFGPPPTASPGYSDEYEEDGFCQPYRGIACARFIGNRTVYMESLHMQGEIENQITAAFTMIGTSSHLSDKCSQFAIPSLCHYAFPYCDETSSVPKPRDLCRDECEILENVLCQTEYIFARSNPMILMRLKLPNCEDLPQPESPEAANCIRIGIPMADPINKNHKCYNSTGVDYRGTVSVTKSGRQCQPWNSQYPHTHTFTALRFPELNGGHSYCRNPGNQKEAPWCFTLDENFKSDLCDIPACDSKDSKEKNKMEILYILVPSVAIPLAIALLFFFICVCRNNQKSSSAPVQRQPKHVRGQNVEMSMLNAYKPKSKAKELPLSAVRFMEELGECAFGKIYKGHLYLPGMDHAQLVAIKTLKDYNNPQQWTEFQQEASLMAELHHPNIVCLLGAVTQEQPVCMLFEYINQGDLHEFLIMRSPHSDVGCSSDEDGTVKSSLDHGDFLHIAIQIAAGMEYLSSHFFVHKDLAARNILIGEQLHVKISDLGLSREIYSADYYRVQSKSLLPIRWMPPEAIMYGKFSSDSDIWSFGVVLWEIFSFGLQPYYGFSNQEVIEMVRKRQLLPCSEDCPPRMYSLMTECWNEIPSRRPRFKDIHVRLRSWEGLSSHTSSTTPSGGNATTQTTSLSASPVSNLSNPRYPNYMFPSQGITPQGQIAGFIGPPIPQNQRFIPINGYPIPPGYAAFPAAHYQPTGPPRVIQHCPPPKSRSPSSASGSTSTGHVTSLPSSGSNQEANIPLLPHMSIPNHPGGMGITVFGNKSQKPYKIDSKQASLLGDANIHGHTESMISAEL

B1: anti-human ROR1 (clone 2A2)-PE (antibody, from another filing, V domains shown)
VH: QVQLQQSGAELVRPGASVTLSCKASGYTFSDYEMHWVIQTPVHGLEWIGAIDPETGGTAYNQKFKGKAILTADKSSSTAYMELRSLTSEDSAVYYCTGYYDYDSFTYWGQGTLVTVSA
VL: DIVMTQSQKIMSTTVGDRVSITCKASQNVDAAVAWYQQKPGQSPKLLIYSASNRYTGVPDRFTGSGSGTDFTLTISNMQSEDLADYFCQQYDIYPYTFGGGTKLEIK
Regarding B1, the MFI in assay [1] worked out at 7960; in assay [2] it was 36200; in assay [3], 35200; in assay [4], 19900; in assay [5] it was 38700; in assay [6], 21600. In addition, the MFI was 27100 in assay [7] and 416000 in assay [8].

The record behind these values is US20250313627A1.
